Data reported in IntAct's records for PubMed 9418902.

B1: Tumor necrosis factor receptor superfamily member 4 (Mus musculus), P47741 (parent)
chain: MYVWVQQPTALLLLALTLGVTARRLNCVKHTYPSGHKCCRECQPGHGMVSRCDHTRDTLCHPCETGFYNEAVNYDTCKQCTQCNHRSGSELKQNCTPTQDTVCRCRPGTQPRQDSGYKLGVDCVPCPPGHFSPGNNQACKPWTNCTLSGKQTRHPASDSLDAVCEDRSLLATLLWETQRPTFRPTTVQSTTVWPRTSELPSPPTLVTPEGPAFAVLLGLGLGLLAPLTVLLALYLLRKAWRLPNTPKPCWGNSFRTPIQEEHTDAHFTLAKI
partner: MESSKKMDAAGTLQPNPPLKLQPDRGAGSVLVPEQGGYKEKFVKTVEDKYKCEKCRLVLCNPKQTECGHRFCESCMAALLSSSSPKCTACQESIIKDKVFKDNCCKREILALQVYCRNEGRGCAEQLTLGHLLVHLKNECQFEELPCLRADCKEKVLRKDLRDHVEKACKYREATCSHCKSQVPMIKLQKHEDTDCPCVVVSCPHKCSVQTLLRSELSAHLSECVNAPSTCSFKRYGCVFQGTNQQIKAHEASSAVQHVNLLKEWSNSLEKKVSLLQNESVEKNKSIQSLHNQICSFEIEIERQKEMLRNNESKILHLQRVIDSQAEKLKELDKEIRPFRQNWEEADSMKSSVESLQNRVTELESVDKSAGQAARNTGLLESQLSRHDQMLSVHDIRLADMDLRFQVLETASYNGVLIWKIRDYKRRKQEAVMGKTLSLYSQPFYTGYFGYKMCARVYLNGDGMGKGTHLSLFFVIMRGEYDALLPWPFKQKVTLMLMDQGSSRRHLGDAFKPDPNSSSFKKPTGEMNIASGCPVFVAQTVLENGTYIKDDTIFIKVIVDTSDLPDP
B2: Tumor necrosis factor receptor superfamily member 4 (Mus musculus), P47741 (parent)
chain: B1 chain
partner: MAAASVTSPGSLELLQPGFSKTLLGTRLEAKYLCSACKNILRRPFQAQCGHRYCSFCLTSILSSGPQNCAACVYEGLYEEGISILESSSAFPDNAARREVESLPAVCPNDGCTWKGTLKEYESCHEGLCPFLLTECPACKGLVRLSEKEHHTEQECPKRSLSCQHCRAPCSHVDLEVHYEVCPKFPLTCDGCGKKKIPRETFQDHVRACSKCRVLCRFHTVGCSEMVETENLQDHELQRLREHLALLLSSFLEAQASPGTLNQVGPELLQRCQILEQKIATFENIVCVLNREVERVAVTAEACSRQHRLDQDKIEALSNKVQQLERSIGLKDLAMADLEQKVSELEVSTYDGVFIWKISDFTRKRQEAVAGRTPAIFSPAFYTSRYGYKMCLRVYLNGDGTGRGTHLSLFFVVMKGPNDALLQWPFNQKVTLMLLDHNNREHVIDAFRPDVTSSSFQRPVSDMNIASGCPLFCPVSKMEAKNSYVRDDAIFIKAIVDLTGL

Variants of: B1
Settings: with traf3_mouse Traf3, Q60803

Row | Variant | effect of a mutation on the interaction
1 | MYVWVQQPTALLLLALTLGVTARRLNCVKHTYPSGHKCCRECQPGHGMVSRCDHTRDTLCHPCETGFYNEAVNYDTCKQCTQCNHRSGSELKQNCTPTQDTVCRCRPGTQPRQDSGYKLGVDCVPCPPGHFSPGNNQACKPWTNCTLSGKQTRHPASDSLDAVCEDRSLLATLLWETQRPTFRPTTVQSTTVWPRTSELPSPPTLVTPEGPAFAVLLGLGLGLLAPLTVLLALYLLRKAWRLPNTPKPCWGNSFRTPIAAAHTDAHFTLAKI [Q259A;E260A;E261A] | disrupting interaction strength
2 | MYVWVQQPTALLLLALTLGVTARRLNCVKHTYPSGHKCCRECQPGHGMVSRCDHTRDTLCHPCETGFYNEAVNYDTCKQCTQCNHRSGSELKQNCTPTQDTVCRCRPGTQPRQDSGYKLGVDCVPCPPGHFSPGNNQACKPWTNCTLSGKQTRHPASDSLDAVCEDRSLLATLLWETQRPTFRPTTVQSTTVWPRTSELPSPPTLVTPEGPAFAVLLGLGLGLLAPLTVLLALYLLRKAWRLPNTPKPCWGNSFRTPIQEEAAAAHFTLAKI [H262A;T263A;D264A] | decreasing interaction strength
3 | MYVWVQQPTALLLLALTLGVTARRLNCVKHTYPSGHKCCRECQPGHGMVSRCDHTRDTLCHPCETGFYNEAVNYDTCKQCTQCNHRSGSELKQNCTPTQDTVCRCRPGTQPRQDSGYKLGVDCVPCPPGHFSPGNNQACKPWTNCTLSGKQTRHPASDSLDAVCEDRSLLATLLWETQRPTFRPTTVQSTTVWPRTSELPSPPTLVTPEGPAFAVLLGLGLGLLAPLTVLLALYLLRKAWRLPNTPKPCWGNSFRAAAQEEHTDAHFTLAKI [T256A;P257A;I258A] | disrupting interaction strength

Variants of: B2
Settings: with traf2_mouse Traf2, P39429

Row | Variant | effect of a mutation on the interaction
4 | MYVWVQQPTALLLLALTLGVTARRLNCVKHTYPSGHKCCRECQPGHGMVSRCDHTRDTLCHPCETGFYNEAVNYDTCKQCTQCNHRSGSELKQNCTPTQDTVCRCRPGTQPRQDSGYKLGVDCVPCPPGHFSPGNNQACKPWTNCTLSGKQTRHPASDSLDAVCEDRSLLATLLWETQRPTFRPTTVQSTTVWPRTSELPSPPTLVTPEGPAFAVLLGLGLGLLAPLTVLLALYLLRKAWRLPNTPKPCWGNSFRTPIQEEAAAAHFTLAKI [H262A;T263A;D264A] | decreasing interaction strength
5 | MYVWVQQPTALLLLALTLGVTARRLNCVKHTYPSGHKCCRECQPGHGMVSRCDHTRDTLCHPCETGFYNEAVNYDTCKQCTQCNHRSGSELKQNCTPTQDTVCRCRPGTQPRQDSGYKLGVDCVPCPPGHFSPGNNQACKPWTNCTLSGKQTRHPASDSLDAVCEDRSLLATLLWETQRPTFRPTTVQSTTVWPRTSELPSPPTLVTPEGPAFAVLLGLGLGLLAPLTVLLALYLLRKAWRLPNTPKPCWGNSFRTPIAAAHTDAHFTLAKI [Q259A;E260A;E261A] | disrupting interaction strength
6 | MYVWVQQPTALLLLALTLGVTARRLNCVKHTYPSGHKCCRECQPGHGMVSRCDHTRDTLCHPCETGFYNEAVNYDTCKQCTQCNHRSGSELKQNCTPTQDTVCRCRPGTQPRQDSGYKLGVDCVPCPPGHFSPGNNQACKPWTNCTLSGKQTRHPASDSLDAVCEDRSLLATLLWETQRPTFRPTTVQSTTVWPRTSELPSPPTLVTPEGPAFAVLLGLGLGLLAPLTVLLALYLLRKAWRLPNTPKPCWGNSFRAAAQEEHTDAHFTLAKI [T256A;P257A;I258A] | disrupting interaction strength
